Results as given in PMC6780499, “Characterization, Recombinant Production and Structure-Function Analysis of NvCI, A Picomolar Metallocarboxypeptidase Inhibitor from the Marine Snail Nerita versicolor” (Marine Drugs, 2019).
No end group written: not given here.

How the values were obtained:
Assay in all cases: Ki, residual activity
hCPD = target: T1, hCPD (Homo sapiens (Human), UniProt O75976)
T1 chain: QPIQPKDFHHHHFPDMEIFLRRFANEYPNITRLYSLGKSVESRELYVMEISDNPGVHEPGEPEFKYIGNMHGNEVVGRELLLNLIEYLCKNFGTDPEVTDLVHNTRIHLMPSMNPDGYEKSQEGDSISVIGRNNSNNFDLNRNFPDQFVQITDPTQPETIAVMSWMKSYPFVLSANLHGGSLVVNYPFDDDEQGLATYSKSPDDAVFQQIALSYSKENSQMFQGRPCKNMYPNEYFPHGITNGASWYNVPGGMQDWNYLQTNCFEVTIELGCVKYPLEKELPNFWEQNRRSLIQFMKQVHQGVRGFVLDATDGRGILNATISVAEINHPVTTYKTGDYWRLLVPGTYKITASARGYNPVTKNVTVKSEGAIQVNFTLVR

hCPA4 = target: T2, hCPA4 (Homo sapiens (Human), UniProt Q9UI42)
T2 chain: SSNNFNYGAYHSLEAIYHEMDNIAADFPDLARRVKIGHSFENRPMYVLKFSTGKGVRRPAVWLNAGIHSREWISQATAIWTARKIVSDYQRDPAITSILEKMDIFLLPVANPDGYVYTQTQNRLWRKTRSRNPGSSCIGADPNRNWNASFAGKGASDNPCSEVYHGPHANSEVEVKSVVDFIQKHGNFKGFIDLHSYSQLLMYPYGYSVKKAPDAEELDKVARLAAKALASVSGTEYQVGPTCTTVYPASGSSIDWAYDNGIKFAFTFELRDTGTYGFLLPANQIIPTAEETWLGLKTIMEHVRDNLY

pCPB = target: T3, pCPB (Sus scrofa (Pig), UniProt P09955)
T3 chain: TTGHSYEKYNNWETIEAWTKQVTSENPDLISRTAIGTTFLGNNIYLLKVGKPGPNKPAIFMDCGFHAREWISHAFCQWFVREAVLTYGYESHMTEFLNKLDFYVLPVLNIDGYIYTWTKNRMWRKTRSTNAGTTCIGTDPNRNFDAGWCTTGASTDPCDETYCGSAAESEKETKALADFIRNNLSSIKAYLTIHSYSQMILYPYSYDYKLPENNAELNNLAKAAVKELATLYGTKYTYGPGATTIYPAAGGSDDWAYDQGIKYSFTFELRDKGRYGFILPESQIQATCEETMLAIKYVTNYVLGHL

bCPA1 = target: T4, bCPA1 (Bos taurus (Bovine), UniProt P00730)
T4 chain: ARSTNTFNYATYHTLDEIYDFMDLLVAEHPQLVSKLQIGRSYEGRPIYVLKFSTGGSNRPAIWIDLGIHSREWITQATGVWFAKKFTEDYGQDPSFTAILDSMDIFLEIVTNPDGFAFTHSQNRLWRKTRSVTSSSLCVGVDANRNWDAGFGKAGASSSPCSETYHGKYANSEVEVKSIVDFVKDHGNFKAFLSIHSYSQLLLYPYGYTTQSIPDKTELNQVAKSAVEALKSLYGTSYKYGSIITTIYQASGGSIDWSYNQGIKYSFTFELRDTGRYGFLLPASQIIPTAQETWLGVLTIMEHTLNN

hTAFI = target: T5, hTAFI (Homo sapiens (Human), UniProt Q96IY4)
T5 chain: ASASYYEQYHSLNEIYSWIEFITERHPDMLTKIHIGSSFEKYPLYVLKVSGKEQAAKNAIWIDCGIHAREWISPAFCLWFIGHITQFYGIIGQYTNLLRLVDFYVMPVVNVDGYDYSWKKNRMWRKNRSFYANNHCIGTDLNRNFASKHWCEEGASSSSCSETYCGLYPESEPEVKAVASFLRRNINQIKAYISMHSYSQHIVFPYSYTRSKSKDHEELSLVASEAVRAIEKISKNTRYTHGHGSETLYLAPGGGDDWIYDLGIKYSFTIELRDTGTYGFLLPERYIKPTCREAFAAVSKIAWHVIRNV

hCPA1 = target: T6, hCPA1 (Homo sapiens (Human), UniProt P15085)
T6 chain: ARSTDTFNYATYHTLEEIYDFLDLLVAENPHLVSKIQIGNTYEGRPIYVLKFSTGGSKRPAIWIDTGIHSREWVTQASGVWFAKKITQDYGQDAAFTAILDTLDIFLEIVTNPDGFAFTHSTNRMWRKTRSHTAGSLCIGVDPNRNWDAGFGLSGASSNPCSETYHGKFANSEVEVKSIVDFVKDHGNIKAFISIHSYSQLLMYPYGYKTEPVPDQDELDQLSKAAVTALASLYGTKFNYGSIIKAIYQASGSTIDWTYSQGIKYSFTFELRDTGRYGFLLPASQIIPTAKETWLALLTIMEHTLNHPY

hCPZ = target: T7, hCPZ (Homo sapiens (Human), UniProt Q66K79)
T7 chain: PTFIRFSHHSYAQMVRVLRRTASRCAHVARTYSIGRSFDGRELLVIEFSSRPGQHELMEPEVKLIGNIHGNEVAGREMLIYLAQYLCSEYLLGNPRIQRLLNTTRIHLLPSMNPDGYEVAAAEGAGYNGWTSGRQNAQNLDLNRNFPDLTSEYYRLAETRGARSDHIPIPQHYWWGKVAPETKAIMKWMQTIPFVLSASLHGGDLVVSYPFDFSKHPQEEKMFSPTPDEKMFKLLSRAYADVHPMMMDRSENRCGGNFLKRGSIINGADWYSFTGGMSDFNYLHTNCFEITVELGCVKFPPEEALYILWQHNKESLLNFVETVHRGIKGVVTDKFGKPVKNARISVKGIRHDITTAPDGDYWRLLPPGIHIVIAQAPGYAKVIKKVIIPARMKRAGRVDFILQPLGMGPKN

rCPA3 = target: T8, rCPA3 (Rattus norvegicus (Rat), UniProt P21961)
T8 chain: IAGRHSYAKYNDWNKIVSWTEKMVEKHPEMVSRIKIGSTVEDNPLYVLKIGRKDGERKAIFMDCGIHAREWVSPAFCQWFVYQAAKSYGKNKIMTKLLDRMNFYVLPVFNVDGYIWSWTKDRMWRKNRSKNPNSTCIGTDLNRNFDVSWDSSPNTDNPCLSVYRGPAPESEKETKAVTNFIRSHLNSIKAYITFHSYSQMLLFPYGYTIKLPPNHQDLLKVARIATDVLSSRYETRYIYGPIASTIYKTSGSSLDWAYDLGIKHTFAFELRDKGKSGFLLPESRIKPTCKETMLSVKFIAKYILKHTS

Kd (hCPD): > 1000 nM
Kd (hCPA4): 0.0049 nM
Kd (pCPB): 0.335 nM
Kd (bCPA1): 0.0058 nM
Kd (hTAFI): 0.951 nM
Kd (hCPA1): 0.0012 nM
Kd (hCPZ): > 1000 nM
Kd (rCPA3): 0.1 nM
B1: NvCI (protein)
chain: FHVPDDRPCINPGRCPLVPDATCTFVCKAADNDFGYECQHVWTFEGQRVGCYA
modifications: disulfide (positions not given here); not fully specified (bridges); ends not checked
